Reference: publication PMC3880588
Where a chain is given by its changes, count along the chain named.

Legend:
Assay in all cases: EMSA
MBNL1-2-72, Q9NR56-5 = system: T1, MBNL1-2-72, Q9NR56-5; conditions: no binding at any concentration (up to 2000 nM); EMSA: 10 mM HEPES pH 7.9, 3 mM MgCl2, 10 uM ZnCl2, 5% glycerol, 1 mM DTT, 20 ug/ml rRNA, 10 fmol RNA in 5 ul, 30 C 15 min, then heparin 5 min; 5% PAGE at 4 C …
T1 sequence: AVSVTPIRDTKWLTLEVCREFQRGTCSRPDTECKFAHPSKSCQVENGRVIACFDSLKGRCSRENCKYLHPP

[1] = system: T2, MBNL-N-M12 F36A;Y68A, Q9NR56-5; conditions: no stable complex up to 2 uM; EMSA: 10 mM HEPES pH 7.9, 3 mM MgCl2, 10 uM ZnCl2, 5% glycerol, 1 mM DTT, 20 ug/ml rRNA, 10 fmol RNA in 5 ul, 30 C 15 min, then heparin 5 min; 5% PAGE at 4 C …
T2 sequence: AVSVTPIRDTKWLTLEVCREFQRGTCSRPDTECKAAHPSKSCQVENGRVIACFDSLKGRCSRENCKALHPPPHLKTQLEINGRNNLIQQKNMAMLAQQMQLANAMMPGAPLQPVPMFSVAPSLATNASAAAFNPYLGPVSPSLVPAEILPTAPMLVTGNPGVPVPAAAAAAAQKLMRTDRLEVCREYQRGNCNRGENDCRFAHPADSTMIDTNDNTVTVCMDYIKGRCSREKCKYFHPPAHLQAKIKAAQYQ

[2] = system: T3, MBNL-N-M34 F202A;Y236A, Q9NR56-5; conditions: EMSA: 10 mM HEPES pH 7.9, 3 mM MgCl2, 10 uM ZnCl2, 5% glycerol, 1 mM DTT, 20 ug/ml rRNA, 10 fmol RNA in 5 ul, 30 C 15 min, then heparin 5 min; 5% PAGE at 4 C …
T3 sequence: T2 sequence with A35F, A67Y, F201A, Y235A

GGGAGACAAGCUUGAGCUGGAUGCCGCCUCUGCUGCUGC [Tpm1 Dugc RNA]
Kd (MBNL1-2-72, Q9NR56-5): > 2000 nM | Kd [1]: > 2000 nM | fold decrease in binding affinity vs WT (fold lower affinity than WT MBNL1-N) [2]: 20

GGGAGACAAGCUUUGCAAACUGUUAAUCUCAACUAACUGCCGCUUAAAUAAUUAGUGCAGCUUUUAACUACUGGUUCUGUCCCAACUGGCUACUUGUGCCUAAAGCCCAAAGAAUU [Vldlr RNA]
Kd (MBNL1-2-72, Q9NR56-5): > 2000 nM | Kd [1]: > 2000 nM | fold decrease in binding affinity vs WT (fold lower affinity than WT MBNL1-N) [2]: 20

GGGAGACAAGCUUAAGUCUACGCACCCUCAACCCGCACCUUGCGGGAUCACGCUGCCUGCUGCACCCCACCCCCUUCCCCCUUCCUUCCCCCCACCCCCGUACUCCACUGCCAACUCCCAG [Tpm1 URE RNA]
Kd (MBNL1-2-72, Q9NR56-5): > 2000 nM | Kd [1]: > 2000 nM | fold decrease in binding affinity vs WT (fold lower affinity than WT MBNL1-N) [2]: 20
